Test results: patent publication CN117999282A (GAMMADELTA THERAPEUTICS LTD, dated 2024)
Each block holds one binder with its values, some of them ahead of it.

Tests used:
recombinant human PD-1 = molecular target: T1, recombinant human PD-1 (human, UniProt Q15116 25-167); test: SPR, PD-1 fixed on carboxymethyl dextran chip, bispecific 100nM, then Vδ1 heterodimer 100nM
T1 construct: also called 重组PD-1; 人PD-1

recombinant human OX40 = molecular target: T2, recombinant human OX40 (human, UniProt P43489 29-216); test: SPR, OX40 fixed on carboxymethyl dextran chip, bispecific 100nM, then Vδ1 heterodimer 100nM
T2 construct: also called 重组OX40; 人OX40
T2 sequence (looked up): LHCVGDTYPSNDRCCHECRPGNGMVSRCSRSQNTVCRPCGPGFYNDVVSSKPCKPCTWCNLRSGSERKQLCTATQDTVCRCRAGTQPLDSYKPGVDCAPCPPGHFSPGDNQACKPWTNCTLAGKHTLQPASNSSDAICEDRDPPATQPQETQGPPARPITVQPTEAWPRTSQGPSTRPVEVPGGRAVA

[1] = molecular target: human Vδ1 γδ T cell receptor on cells (skin-, blood- or tumour-derived Vδ1 γδ T cells) (human); test: cell-based or functional assay
human Vδ1 γδ T cell receptor on cells (skin-, blood- or tumour-derived Vδ1 γδ T cells) (human), sequence (A0A1B0GX56 22-115, stated change not applied): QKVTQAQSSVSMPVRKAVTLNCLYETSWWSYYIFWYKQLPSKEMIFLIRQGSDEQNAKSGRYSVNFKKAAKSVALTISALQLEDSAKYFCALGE

T1 sequence (Q15116 25-167 limits assumed): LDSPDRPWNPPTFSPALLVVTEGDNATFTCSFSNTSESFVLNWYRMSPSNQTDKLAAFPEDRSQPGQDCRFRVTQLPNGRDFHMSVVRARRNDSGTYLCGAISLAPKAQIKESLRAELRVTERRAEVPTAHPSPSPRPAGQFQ

binding result (recombinant human PD-1): binds
B1: 抗Vδ1×PD-1双特异性抗体 (ADT1-4-2×帕博利珠单抗) (bispecific antibody, human IgG1, kappa)
chain 1: EIVLTQSPATLSLSPGERATLSCRASKGVSTSGYSYLHWYQQKPGQAPRLLIYLASYLESGVPARFSGSGSGTDFTLTISSLEPEDFAVYYCQHSRDLPLTFGGGTKVEIKRTVAAPSVFIFPPSDEQLKSGTASVVCLLNNFYPREAKVQWKVDNALQSGNSQESVTEQDSKDSTYSLSSTLTLSKADYEKHKVYACEVTHQGLSSPVTKSFNRGEC
chain 2: not shown
notes: also called 抗Vδ1×抗PD-1

binding result (recombinant human OX40): binds
B2: 抗Vδ1×OX40双特异性抗体 (ADT1-4-2×珀伽利珠单抗) (bispecific antibody, human IgG1, kappa)
chain 1: DIQMTQSPPALSASVGDRVTITCRASQDINDWLAWYQHKPGKAPKLLIYDASSLESGVPLRFSGSGSGTEFTLTISSLQPDDFATYYCQQKYSAPQVTFGQGTRLEIKRTVAAPSVFIFPPSDEQLKSGTASVVCLLNNFYPREAKVQWKVDNALQSGNSQESVTEQDSKDSTYSLSSTLTLSKADYEKHKVYACEVTHQGLSSPVTKSFNRGEC
chain 2: not shown
notes: also called 抗Vδ1×抗OX40

TCR下调 IC50 (soluble assay) [1]: 38.3 nM
B3: ADT1-4 (parent antibody) (antibody, IgG1, V domains shown)
VH: QVQLQQSGPGLVKPSQTLSLTCAISGDSVSSKSAAWNWIRQSPSRGLEWLGRTYYRSKWSTDYAASVKSRITINPDTSKNQLSLQLNSVTPEDTAVYYCARTWSGYVDVWGQGTLVTVSS
VL: DIQMTQSPPALSASVGDRVTITCRASQDINDWLAWYQHKPGKAPKLLIYDASSLESGVPSRFSGSGSGTEFTLTISSLQPDDFATYYCQQSYSTPQVTFGQGTRLEIK
